The text below walks through data of publication PMC11641776, “Biophysical Characterization of a Novel Phosphopentomutase from the Hyperthermophilic Archaeon Thermococcus kodakarensis” (International Journal of Molecular Sciences, 2024).

The data set concerns the molecule itself. In words: SEC; HiLoad 16/60 Superdex 200 Prep Grade column, 50 mM HEPES pH 7.0, 200 mM NaCl; elution at 61 mL, compared with standards. Background: SEC sorts molecules by how far they enter the pores of the column.

B1: Phosphopentomutase from Thermococcus kodakarensis (PPMTk) (enzyme)
chain: RLFGTAGIRGTLWEKVTPELAMKVGMAVGTYKSGKALVGRDGRTSSVMLKNAMISGLLSTGMEVLDADLIPTPALAWGTRKLADAGVMITASHNPPTDNGVKVFNGDGTEFYVEQERGLEEIIFSGNFRKARWDEIKPVRNVEVIPDYINAVLDFVGHETNLKVLYDGANGAGSLVAPYLLREMGAKVLSVNAHVDGHFPGRKPEPRYENIAYLGKLVRELGVDLAIAQDGDADRIAVFDEKGNYVDEDTVIALFAKLYVEEHGGGTVVVSIDTGSRIDAVVERAGGRVVRIPLGQPHDGIKRYKAIFAAEPWKLVHPKFGPWIDPFVTMGLLIKLIDENGPLSELVKEIPTYYLKKANVLCPDEYKAEVVRRAAEEVERKLSSEIKEVLTISGFRIALNDGSWILIRPSGTEPKIRVVAEAPTEKRRDELFEMAYSTVSRIVKEAEKK
notes: Phosphopentomutase PPMTk of Thermococcus kodakarensis, encoded by open reading frame TK1777; UniProt entry Q6I7B6; residues 3-447 are modelled in each of the four protomers of the crystal structure; the tag was cut off with TEV protease before SEC and the later analyses; also called TK1777; Tk1777; not shown: His6, N-terminal, cleaved
In general, stoichiometry N refers to the number of molecules, sites or subunits per partner or assembly. As to B1, the “stoichiometry N” value worked out at 4.
